Experimental data from publication doi:10.1101/780452, “Development of c-type lectin oriented surfaces for high avidity glycoconjugates: towards mimicking multivalent interactions on the cell surface” (bioRxiv, 2019).

Target: T1, BSA-Man (glycoprotein bearing 12 glycosylated sites) (bovine (from the name BSA), UniProt P02769 25-607, 12 glycosylated sites (mannose glycans, up to 12 glycans displayed))
T1 construct: BSA (serum albumin) carrying mannose glycans; A neoglycoprotein; also called Man-BSA
T1 sequence (P02769 25-607): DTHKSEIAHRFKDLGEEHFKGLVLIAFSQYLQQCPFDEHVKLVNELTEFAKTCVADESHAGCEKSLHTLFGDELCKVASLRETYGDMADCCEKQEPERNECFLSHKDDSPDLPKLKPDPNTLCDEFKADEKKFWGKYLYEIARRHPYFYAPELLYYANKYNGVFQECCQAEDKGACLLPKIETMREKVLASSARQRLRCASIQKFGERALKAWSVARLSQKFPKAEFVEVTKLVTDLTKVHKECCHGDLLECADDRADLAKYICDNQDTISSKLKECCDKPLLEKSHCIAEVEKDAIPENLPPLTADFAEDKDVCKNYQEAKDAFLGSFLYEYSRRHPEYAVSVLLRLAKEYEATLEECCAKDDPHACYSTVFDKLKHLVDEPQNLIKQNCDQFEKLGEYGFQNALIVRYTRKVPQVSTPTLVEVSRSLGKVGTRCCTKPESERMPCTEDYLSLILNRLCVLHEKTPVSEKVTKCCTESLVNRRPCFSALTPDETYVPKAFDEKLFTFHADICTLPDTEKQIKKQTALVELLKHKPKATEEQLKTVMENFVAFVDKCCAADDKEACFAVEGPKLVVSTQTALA
Test: SPR; BSA-Man titrated over a DC-SIGN S-ECD oriented surface (StrepTactin-functionalised CM3 chip, Biacore T200); 25 mM Tris pH 8, 150 mM NaCl, 4 mM CaCl2, 0.05% P20; steady state affinity model; apparent KD for the surface
Settings: both partners purified

Kd: 5 nM
B1: DC-SIGN S-ECD (DC-SIGN extracellular domain tagged at its N-terminus with a StreptagII) (domain or fragment, UniProt Q9NNX6 66-404, looked up)
chain: SISQEQSRQDAIYQNLTQLKAAVGELSEKSKLQEIYQELTQLKAAVGELPEKSKLQEIYQELTRLKAAVGELPEKSKLQEIYQELTWLKAAVGELPEKSKMQEIYQELTRLKAAVGELPEKSKQQEIYQELTRLKAAVGELPEKSKQQEIYQELTRLKAAVGELPEKSKQQEIYQELTQLKAAVERLCHPCPWEWTFFQGNCYFMSNSQRNWHDSITACKEVGAQLVVIKSAEEQNFLQLQSSRSNRFTWMGLSDLNQEGTWQWVDGSPLLPSFKQYWNRGEPNNVGEEDCAEFSGNGWNDDKCNLAKFWICKKSAASCSRDEEQFLSPAPATPNPPPA
notes: DC-SIGN (Dendritic Cell specific ICAM-3 Grabbing Non-integrin), extracellular domain, amino acids 66-404; A factor Xa cleavage site lies between the N-terminal StreptagII and the ECD; On the chip the protein was captured by StrepTactin and then covalently fixed with EDC/NHS; source: E. coli Rosetta (DE3), inclusion bodies, purified (StrepTactin column, Mannan-agarose, Superose-12); not shown: …
